# Data taken from patent publication US20130005646A1 (Novo Nordisk, published 2013).
# Starred links: 1 amine or outer side, 2 acyl side, 3 side chain; linkers in the order of their positions; H or OH if unused. Positions of bridges follow the written chain, without caps; N, C: chain ends. *: point of attachment. C20 diacid = O=C(O)CCCCCCCCCCCCCCCCCCC(=O)*; γGlu = O=C(O)[C@H](CCC(=O)[*:2])N[*:1]
# B1: N-alpha-[(S)-4-Carboxy-4-(19-carboxynonadecanoylamino)butyryl]-His-His-[His1,Glu14,His17,Ala25,Pro26,Ser28,Ser29]-pramlintide (peptide)
# peptide: {C20 diacid-γGlu}-HHHCNTATCATQRLAEFLHHSSNNFGAPLSSTNVGSNTY-NH2
# modifications: disulfide 4-9
# SMILES: CC(C)C[C@H](NC(=O)[C@H](CCCNC(=N)N)NC(=O)[C@H](CCC(N)=O)NC(=O)[C@@H](NC(=O)[C@H](C)NC(=O)[C@@H]1CSSC[C@H](NC(=O)[C@H](Cc2c[nH]cn2)NC(=O)[C@H](Cc2c[nH]cn2)NC(=O)[C@H](Cc2c[nH]cn2)NC(=O)CC[C@H](NC(=O)CCCCCCCCCCCCCCCCCCC(=O)O)C(=O)O)C(=O)N[C@@H](CC(N)=O)C(=O)N[C@@H]([C@@H](C)O)C(=O)N[C@@H](C)C(=O)N[C@@H]([C@@H](C)O)C(=O)N1)[C@@H](C)O)C(=O)N[C@@H](C)C(=O)N[C@@H](CCC(=O)O)C(=O)N[C@@H](Cc1ccccc1)C(=O)N[C@@H](CC(C)C)C(=O)N[C@@H](Cc1c[nH]cn1)C(=O)N[C@@H](Cc1c[nH]cn1)C(=O)N[C@@H](CO)C(=O)N[C@@H](CO)C(=O)N[C@@H](CC(N)=O)C(=O)N[C@@H](CC(N)=O)C(=O)N[C@@H](Cc1ccccc1)C(=O)NCC(=O)N[C@@H](C)C(=O)N1CCC[C@H]1C(=O)N[C@@H](CC(C)C)C(=O)N[C@@H](CO)C(=O)N[C@@H](CO)C(=O)N[C@H](C(=O)N[C@@H](CC(N)=O)C(=O)N[C@H](C(=O)NCC(=O)N[C@@H](CO)C(=O)N[C@@H](CC(N)=O)C(=O)N[C@H](C(=O)N[C@@H](Cc1ccc(O)cc1)C(N)=O)[C@@H](C)O)C(C)C)[C@@H](C)O
# B2: N-alpha-[(S)-4-Carboxy-4-(19-carboxynonadecanoylamino)butyryl]-[Glu1,Gly3,Glu14,Arg18,Ser21,Ser22,Ala25,Pro26,Ser28,Ser29,Glu31,Arg35]-pramlintide (peptide)
# peptide: {C20 diacid-γGlu}-ECGTATCATQRLAEFLVRSSSSFGAPLSSTEVGSRTY-NH2
# modifications: disulfide 2-7
# SMILES: CC(C)C[C@H](NC(=O)[C@H](CCCNC(=N)N)NC(=O)[C@H](CCC(N)=O)NC(=O)[C@@H](NC(=O)[C@H](C)NC(=O)[C@@H]1CSSC[C@H](NC(=O)[C@H](CCC(=O)O)NC(=O)CC[C@H](NC(=O)CCCCCCCCCCCCCCCCCCC(=O)O)C(=O)O)C(=O)NCC(=O)N[C@@H]([C@@H](C)O)C(=O)N[C@@H](C)C(=O)N[C@@H]([C@@H](C)O)C(=O)N1)[C@@H](C)O)C(=O)N[C@@H](C)C(=O)N[C@@H](CCC(=O)O)C(=O)N[C@@H](Cc1ccccc1)C(=O)N[C@@H](CC(C)C)C(=O)N[C@H](C(=O)N[C@@H](CCCNC(=N)N)C(=O)N[C@@H](CO)C(=O)N[C@@H](CO)C(=O)N[C@@H](CO)C(=O)N[C@@H](CO)C(=O)N[C@@H](Cc1ccccc1)C(=O)NCC(=O)N[C@@H](C)C(=O)N1CCC[C@H]1C(=O)N[C@@H](CC(C)C)C(=O)N[C@@H](CO)C(=O)N[C@@H](CO)C(=O)N[C@H](C(=O)N[C@@H](CCC(=O)O)C(=O)N[C@H](C(=O)NCC(=O)N[C@@H](CO)C(=O)N[C@@H](CCCNC(=N)N)C(=O)N[C@H](C(=O)N[C@@H](Cc1ccc(O)cc1)C(N)=O)[C@@H](C)O)C(C)C)[C@@H](C)O)C(C)C
# B3: N-alpha-[(S)-4-Carboxy-4-(19-carboxynonadecanoylamino)butyryl]-His-His-[His1,Glu14,His17,Arg35]-pramlintide (peptide)
# peptide: {C20 diacid-γGlu}-HHHCNTATCATQRLAEFLHHSSNNFGPILPPTNVGSRTY-NH2
# modifications: disulfide 4-9
# SMILES: CC[C@H](C)[C@H](NC(=O)[C@@H]1CCCN1C(=O)CNC(=O)[C@H](Cc1ccccc1)NC(=O)[C@H](CC(N)=O)NC(=O)[C@H](CC(N)=O)NC(=O)[C@H](CO)NC(=O)[C@H](CO)NC(=O)[C@H](Cc1c[nH]cn1)NC(=O)[C@H](Cc1c[nH]cn1)NC(=O)[C@H](CC(C)C)NC(=O)[C@H](Cc1ccccc1)NC(=O)[C@H](CCC(=O)O)NC(=O)[C@H](C)NC(=O)[C@H](CC(C)C)NC(=O)[C@H](CCCNC(=N)N)NC(=O)[C@H](CCC(N)=O)NC(=O)[C@@H](NC(=O)[C@H](C)NC(=O)[C@@H]1CSSC[C@H](NC(=O)[C@H](Cc2c[nH]cn2)NC(=O)[C@H](Cc2c[nH]cn2)NC(=O)[C@H](Cc2c[nH]cn2)NC(=O)CC[C@H](NC(=O)CCCCCCCCCCCCCCCCCCC(=O)O)C(=O)O)C(=O)N[C@@H](CC(N)=O)C(=O)N[C@@H]([C@@H](C)O)C(=O)N[C@@H](C)C(=O)N[C@@H]([C@@H](C)O)C(=O)N1)[C@@H](C)O)C(=O)N[C@@H](CC(C)C)C(=O)N1CCC[C@H]1C(=O)N1CCC[C@H]1C(=O)N[C@H](C(=O)N[C@@H](CC(N)=O)C(=O)N[C@H](C(=O)NCC(=O)N[C@@H](CO)C(=O)N[C@@H](CCCNC(=N)N)C(=O)N[C@H](C(=O)N[C@@H](Cc1ccc(O)cc1)C(N)=O)[C@@H](C)O)C(C)C)[C@@H](C)O
# B4: N-alpha-[(S)-4-Carboxy-4-(19-carboxynonadecanoylamino)butyryl]-His-His-[His1,Arg3,Glu14,His17]-pramlintide (peptide)
# peptide: {C20 diacid-γGlu}-HHHCRTATCATQRLAEFLHHSSNNFGPILPPTNVGSNTY-NH2
# modifications: disulfide 4-9
# SMILES: CC[C@H](C)[C@H](NC(=O)[C@@H]1CCCN1C(=O)CNC(=O)[C@H](Cc1ccccc1)NC(=O)[C@H](CC(N)=O)NC(=O)[C@H](CC(N)=O)NC(=O)[C@H](CO)NC(=O)[C@H](CO)NC(=O)[C@H](Cc1c[nH]cn1)NC(=O)[C@H](Cc1c[nH]cn1)NC(=O)[C@H](CC(C)C)NC(=O)[C@H](Cc1ccccc1)NC(=O)[C@H](CCC(=O)O)NC(=O)[C@H](C)NC(=O)[C@H](CC(C)C)NC(=O)[C@H](CCCNC(=N)N)NC(=O)[C@H](CCC(N)=O)NC(=O)[C@@H](NC(=O)[C@H](C)NC(=O)[C@@H]1CSSC[C@H](NC(=O)[C@H](Cc2c[nH]cn2)NC(=O)[C@H](Cc2c[nH]cn2)NC(=O)[C@H](Cc2c[nH]cn2)NC(=O)CC[C@H](NC(=O)CCCCCCCCCCCCCCCCCCC(=O)O)C(=O)O)C(=O)N[C@@H](CCCNC(=N)N)C(=O)N[C@@H]([C@@H](C)O)C(=O)N[C@@H](C)C(=O)N[C@@H]([C@@H](C)O)C(=O)N1)[C@@H](C)O)C(=O)N[C@@H](CC(C)C)C(=O)N1CCC[C@H]1C(=O)N1CCC[C@H]1C(=O)N[C@H](C(=O)N[C@@H](CC(N)=O)C(=O)N[C@H](C(=O)NCC(=O)N[C@@H](CO)C(=O)N[C@@H](CC(N)=O)C(=O)N[C@H](C(=O)N[C@@H](Cc1ccc(O)cc1)C(N)=O)[C@@H](C)O)C(C)C)[C@@H](C)O
# B5: N-alpha-(19-carboxynonadecanoyl)-Glu-Glu-Arg-[Glu1,Pro37]-pramlintide (peptide)
# peptide: {C20 diacid}-EERECNTATCATQRLANFLVHSSNNFGPILPPTNVGSNTP-NH2
# modifications: disulfide 5-10
# SMILES: CC[C@H](C)[C@H](NC(=O)[C@@H]1CCCN1C(=O)CNC(=O)[C@H](Cc1ccccc1)NC(=O)[C@H](CC(N)=O)NC(=O)[C@H](CC(N)=O)NC(=O)[C@H](CO)NC(=O)[C@H](CO)NC(=O)[C@H](Cc1c[nH]cn1)NC(=O)[C@@H](NC(=O)[C@H](CC(C)C)NC(=O)[C@H](Cc1ccccc1)NC(=O)[C@H](CC(N)=O)NC(=O)[C@H](C)NC(=O)[C@H](CC(C)C)NC(=O)[C@H](CCCNC(=N)N)NC(=O)[C@H](CCC(N)=O)NC(=O)[C@@H](NC(=O)[C@H](C)NC(=O)[C@@H]1CSSC[C@H](NC(=O)[C@H](CCC(=O)O)NC(=O)[C@H](CCCNC(=N)N)NC(=O)[C@H](CCC(=O)O)NC(=O)[C@H](CCC(=O)O)NC(=O)CCCCCCCCCCCCCCCCCCC(=O)O)C(=O)N[C@@H](CC(N)=O)C(=O)N[C@@H]([C@@H](C)O)C(=O)N[C@@H](C)C(=O)N[C@@H]([C@@H](C)O)C(=O)N1)[C@@H](C)O)C(C)C)C(=O)N[C@@H](CC(C)C)C(=O)N1CCC[C@H]1C(=O)N1CCC[C@H]1C(=O)N[C@H](C(=O)N[C@@H](CC(N)=O)C(=O)N[C@H](C(=O)NCC(=O)N[C@@H](CO)C(=O)N[C@@H](CC(N)=O)C(=O)N[C@H](C(=O)N1CCC[C@H]1C(N)=O)[C@@H](C)O)C(C)C)[C@@H](C)O
# Biological target: T1, human amylin 3(a) receptor (human calcitonin receptor + RAMP-3) (human, UniProt P30988 25-474; O60896 24-148)
# T1 sequence (looked up) 1: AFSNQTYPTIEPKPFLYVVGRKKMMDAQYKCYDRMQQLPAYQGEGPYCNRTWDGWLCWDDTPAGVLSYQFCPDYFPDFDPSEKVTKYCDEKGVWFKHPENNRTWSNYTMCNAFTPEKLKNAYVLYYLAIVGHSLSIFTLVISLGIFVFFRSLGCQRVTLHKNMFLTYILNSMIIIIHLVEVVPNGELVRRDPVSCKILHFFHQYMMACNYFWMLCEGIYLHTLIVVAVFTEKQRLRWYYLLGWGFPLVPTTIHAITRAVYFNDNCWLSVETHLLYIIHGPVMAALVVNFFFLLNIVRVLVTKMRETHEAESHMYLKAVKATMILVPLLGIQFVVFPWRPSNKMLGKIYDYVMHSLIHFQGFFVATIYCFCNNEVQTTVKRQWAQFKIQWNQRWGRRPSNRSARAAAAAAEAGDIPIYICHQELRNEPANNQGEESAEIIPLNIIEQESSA
# T1 sequence (looked up) 2: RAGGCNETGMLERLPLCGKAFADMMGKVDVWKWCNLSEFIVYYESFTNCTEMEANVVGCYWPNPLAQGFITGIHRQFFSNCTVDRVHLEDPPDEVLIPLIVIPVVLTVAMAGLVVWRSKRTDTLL
# Test: cell-based or functional assay
row,Binder,Amylin receptor human EC50 [nM]
1,B1,0.105
2,B2,1.44
3,B3,0.192
4,B4,0.0985

# Biological target: T2, rat calcitonin (a) receptor (rat, UniProt P32214 25-516)
# T2 sequence (looked up): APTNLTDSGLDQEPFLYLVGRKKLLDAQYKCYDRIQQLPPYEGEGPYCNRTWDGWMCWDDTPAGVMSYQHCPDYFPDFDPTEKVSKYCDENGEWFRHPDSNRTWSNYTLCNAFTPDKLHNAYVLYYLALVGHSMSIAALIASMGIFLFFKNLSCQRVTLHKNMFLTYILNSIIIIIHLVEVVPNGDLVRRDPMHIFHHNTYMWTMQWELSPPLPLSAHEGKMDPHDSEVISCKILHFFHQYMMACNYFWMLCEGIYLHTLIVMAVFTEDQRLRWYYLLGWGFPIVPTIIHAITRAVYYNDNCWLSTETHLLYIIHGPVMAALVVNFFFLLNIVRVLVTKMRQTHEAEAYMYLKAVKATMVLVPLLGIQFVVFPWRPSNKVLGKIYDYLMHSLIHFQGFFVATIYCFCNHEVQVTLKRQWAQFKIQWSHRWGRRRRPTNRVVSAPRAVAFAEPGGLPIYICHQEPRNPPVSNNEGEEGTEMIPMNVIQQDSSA
# Test: cell-based or functional assay
row,Binder,CTa receptor rat EC50 [nM]
1,B1,0.824
2,B2,1.75
3,B3,1.34
4,B4,1.29

# Biological target: T3, human calcitonin (a) receptor (human, UniProt P30988 25-474)
# T3 sequence (looked up): T1 sequence (looked up) 1
# Test: cell-based or functional assay
row,Binder,CTa receptor human EC50 [nM]
1,B1,0.31
2,B2,0.672
3,B3,0.429
4,B4,0.157

# Biological target: T4, rat amylin 3(a) receptor (rat calcitonin(a) receptor + rat RAMP3) (rat, UniProt P32214 25-516; Q9JJ73 23-147)
# T4 sequence (looked up) 1: T2 sequence (looked up)
# T4 sequence (looked up) 2: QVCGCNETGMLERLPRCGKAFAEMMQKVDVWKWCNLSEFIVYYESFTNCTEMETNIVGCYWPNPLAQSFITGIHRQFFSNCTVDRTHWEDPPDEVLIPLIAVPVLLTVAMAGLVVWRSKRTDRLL
# Test: cell-based or functional assay
row,Binder,Amylin receptor rat EC50 [nM]
1,B1,0.132
2,B2,4.51
3,B3,0.133
4,B4,0.261

# Biological target: T5, human amylin 3(a) receptor (human calcitonin receptor + RAMP-3) (human) (UniProt P30988)
# T5 sequence (looked up) 1: T1 sequence (looked up) 1
# T5 sequence (looked up) 2: T1 sequence (looked up) 2
# Test: cell-based or functional assay
row,Binder,Amylin receptor human EC50 [nM]
1,B5,0.045

# Biological target: T6, human calcitonin (a) receptor (human) (UniProt P30988)
# T6 sequence (looked up): T1 sequence (looked up) 1
# Test: cell-based or functional assay
row,Binder,CTa receptor human EC50 [nM]
1,B5,0.0615
